Measurements from the supplement of paper PMC10724198.
± gives the standard deviation of the averaged measurements.

Tested on: Saccharomyces cerevisiae
Test: protein stability index of tFT-peptide fusion (C-terminal peptide) (PSI (0-1 scale)); higher = more stable (slower turnover)
Settings: genetic background: wild type; temperature: 30 C
Protocol: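 Multiplexed protein stability (MPS) profiling in S. cerevisiae. Random 12-aa peptides (tFT-X12 library) are fused to the C-terminus of a sfGFP-mCherry tandem fluorescent timer, after mCherry and a GGGS linker. Cells are FACS-sorted into 8 mCherry/sfGFP bins and deep-sequenced. The protein stability index (PSI) is the read-weighted bin average, scaled from 0 (unstable) to 1 (stable). Only peptides with >10 reads are reported; cells were grown at 30 °C in SC-His with glucose.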
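Also: PSI is a weighted mean of sequencing reads over stability bins, variants kept only with over 10 reads, mCherry proximal and sfGFP distal, peptide attached via GGGS linker.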

Sequence | protein stability index
TYYCFYCHPSLL | 0.699 ± 0.057
KKPHKTKGICYT | 0.673 ± 0.012
TFCPPSRYRPRA | 0.709 ± 0.008
ECGNYRGPYRTR | 0.678 ± 0.026
PSRKFYSRHFPP | 0.671 ± 0.028
YCPPHRCEAECI | 0.657 ± 0.06
WRRCSGVGVGSP | 0.663 ± 0.072
LSRWGKTKGKKW | 0.62 ± 0.014
RRVDVRKGRLTP | 0.753 ± 0.096
GNAGGFRSLISW | 0.663 ± 0.065
VEAIKTSMFFLW | 0.711 ± 0.055
WGGGGWRGGGAR | 0.747 ± 0.033
VLRRALIIELLE | 0.66 ± 0.025
EDHSCVFSAFCF | 0.663 ± 0.045
WSSTPSCVPDLP | 0.721 ± 0.054
SLPTPPLFPSFP | 0.731 ± 0.014
CVDSRRCCSCFC | 0.59 ± 0.074
PPPPPLPLDYPP | 0.638 ± 0.025
TSKRRRWGTTRK | 0.672 ± 0.074
PSPSLPSACARP | 0.701 ± 0.012
KKQKPKVTSTKT | 0.712 ± 0.037
RITSSLCPPLLR | 0.695 ± 0.013
LGPSPQRLRYPT | 0.65 ± 0.035
GFGCVGSIFVIY | 0.66 ± 0.018
PFECRRPFPPPA | 0.764 ± 0.067

Sequence | protein stability index
FMDLVRSVPTGC | 0.706 ± 0.046
CVTFHKGRVFLR | 0.609 ± 0.031
KKKNNEKLEEKK | 0.687 ± 0.0098
AFAFSVLTGWGV | 0.638 ± 0.072
SCYTEQRVMICL | 0.592 ± 0.0023
LFRRVASILPRD | 0.668 ± 0.013
RESTKNETSGKK | 0.632 ± 0.04
PALTSSGPPPLV | 0.741 ± 0.096
FCLAPMLLPGSF | 0.6785 ± 0.0064
GHDWRNPRLVED | 0.645 ± 0.062
VQCSLWYARLIL | 0.513 ± 0.033
GGWGGRSGTEGE | 0.686 ± 0.013
SLLSSSALTASP | 0.65 ± 0.043
RFPLCLHLPLLL | 0.55 ± 0.012
RGAHVTRPGTRD | 0.66 ± 0.034
PRPPPSQATLSP | 0.637 ± 0.052
ELDRIRPHEQSH | 0.723 ± 0.03
DGVSRSHFQCVS | 0.708 ± 0.044
SLPPFPLHSFPV | 0.694 ± 0.24
FFSFTTPHLSFA | 0.688 ± 0.054
ILLPLRHHSFSD | 0.643 ± 0.0087
FAPFVPGPSIKY | 0.705 ± 0.074
LFLSFFLPSYNT | 0.66 ± 0.026
PPFFPLRPSLVL | 0.656 ± 0.051
EECGVIDIILGG | 0.679 ± 0.013

Sequence | protein stability index
KEIRNNEKKKKK | 0.657 ± 0.013
VFCTFVGPRSDV | 0.775 ± 0.13
VGGVDMCGARVV | 0.754 ± 0.032
LLHWGRWRRGRR | 0.722 ± 0.046
LPPSPLMTRTCA | 0.6343 ± 0.0041
VSFLVPRYLFSG | 0.654 ± 0.16
LLRVLVTFDAFD | 0.576 ± 0.021
YFGPSPTRPPVP | 0.7225 ± 0.0015
ILLFLRCFSGFF | 0.5619 ± 0.0046
IIKKKKKIKRNN | 0.683 ± 0.014
EEKRKRKSQNEI | 0.702 ± 0.045
AGVVGRMGWGAT | 0.707 ± 0.041
RCCLDLLIFPCS | 0.735 ± 0.15
LPCTTPLLFTPV | 0.706 ± 0.21
IPDRSLFPWTGR | 0.661 ± 0.012
PLIVSPCYSLVP | 0.659 ± 0.014
LVLDVLDLRRHC | 0.649 ± 0.012
GHCFCRLLPLHW | 0.755 ± 0.025
SRVWVGQMIRGR | 0.664 ± 0.019
NFPVLLSISALL | 0.548 ± 0.072
SYSPRRRLNTPR | 0.699 ± 0.058
SASSPLPPAATG | 0.652 ± 0.051
AHQEAIIPTIGK | 0.694 ± 0.087
WSLGPDVCGGVV | 0.708 ± 0.027
DDSFNPWSVRVH | 0.7154 ± 0.006

Sequence | protein stability index
CSSARVLPLPVP | 0.661 ± 0.041
GTRPSPPSRLVS | 0.677 ± 0.031
SFPHLARRLLSP | 0.673 ± 0.06
YVKSIRRRDYIW | 0.694 ± 0.0046
VLEAIIFRKHDN | 0.74 ± 0.14
TRDEGWSSAARK | 0.637 ± 0.062
APPPPPRISAWL | 0.745 ± 0.012
MSKTIEREGNMI | 0.735 ± 0.034
SGRGANGVPGGE | 0.602 ± 0.16
IGLCGWVSGAAT | 0.7274 ± 0.0069
GIGKADSKRERS | 0.652 ± 0.00097
FRSHGHLSQNSY | 0.679 ± 0.044
VSGDPWMWDVFI | 0.746 ± 0.036
KKTQKKKKLIPQ | 0.7046 ± 0.0062
PERWFPSTPSLP | 0.702 ± 0.031
GRLLRVSCHGVS | 0.701 ± 0.019
RGDGAGQARGVV | 0.684 ± 0.053
VQLGRRGQAVEP | 0.7 ± 0.036
LWISDSGSLYFS | 0.739 ± 0.018
PVRVRGRGGCGG | 0.684 ± 0.11
PPALRPPPPPPP | 0.6932 ± 0.0019
LGMGWGSGLERW | 0.826 ± 0.12
PSSSVICLLPPA | 0.636 ± 0.04
IPVGTVGTLNAA | 0.66 ± 0.057
CRTIILCLLTNL | 0.498 ± 0.024

Sequence | protein stability index
SISYSNLPSLFF | 0.75 ± 0.051
IGGFGVRIYFGG | 0.627 ± 0.056
AGAGGGQGKGRE | 0.639 ± 0.019
PPLSPTLTIPPP | 0.698 ± 0.079
FIWRFYSLPLGC | 0.623 ± 0.069
SRVRTIVRNGSR | 0.777 ± 0.11
ALFVVLSGLSLR | 0.616 ± 0.017
PSPFFSRPSYLS | 0.718 ± 0.026
PPTHHRALRPSA | 0.687 ± 0.026
SSNKSKNNHSNM | 0.688 ± 0.031
GFSAGVSHSGAG | 0.661 ± 0.017
QTVPGKNLDGDL | 0.714 ± 0.013
ETKFLVDRKTDI | 0.67 ± 0.012
LCSPSPPCPRLP | 0.748 ± 0.025
EGEGGKRGEGKR | 0.624 ± 0.041
SGGADYMDPRLT | 0.714 ± 0.027
GGGLSWARRSPS | 0.683 ± 0.069
SSGAIKPDFRMA | 0.7446 ± 0.005
KHGLSDRAPLPK | 0.698 ± 0.05
SPLSDPPPYRPP | 0.591 ± 0.028
CRGEGGRTVING | 0.634 ± 0.063
TRPGKRNGRPPR | 0.6995 ± 0.0008
GGRGSGLVGCSL | 0.6 ± 0.065
SLSFTFPLAPLL | 0.643 ± 0.12
ACPDARNAGTQR | 0.708 ± 0.022

Sequence | protein stability index
QGRPPADRATAV | 0.755 ± 0.029
AHWYPAGQCSRL | 0.804 ± 0.13
LGLSTVKLEVPW | 0.7731 ± 0.0016
TTKNTSIKTKLK | 0.67 ± 0.026
IACPPSVIFSPH | 0.713 ± 0.058
CDDGLIVNKVDS | 0.665 ± 0.0092
SRTSRGPPFSSS | 0.688 ± 0.043
GASGWGGGGRGR | 0.767 ± 0.14
AKDSSPTFTSPH | 0.673 ± 0.032
ILPPPYVPARLS | 0.577 ± 0.054
NIRYRQKEKKND | 0.573 ± 0.031
LFLTFYSPLSFT | 0.646 ± 0.022
MTKNKFLTGSRL | 0.845 ± 0.22
GCFVGCDHWGVV | 0.67 ± 0.028
KNQRTLKSPQEV | 0.6387 ± 0.0055
LSLFMAAREVFP | 0.664 ± 0.018
SHGLLTLRLALA | 0.586 ± 0.017
FFWGRFCLGLWS | 0.568 ± 0.067
LGSVLSLVRFGR | 0.677 ± 0.016
SISLLIWLFSSC | 0.637 ± 0.05
TRPTQNKQIKNI | 0.6141 ± 0.0032
WSRRGQRGKAWR | 0.733 ± 0.12
RCRGPVYIPPGT | 0.654 ± 0.027
SLGSTHRWPPVV | 0.6272 ± 0.0019
RQKEVSISYCWI | 0.646 ± 0.12

Sequence | protein stability index
PPPGPSPLAAPP | 0.654 ± 0.056
ARSPLTIGLYPF | 0.6915 ± 0.0016
LLPPPPFSAPPS | 0.671 ± 0.012
WIRVYPDSSSPL | 0.8557 ± 0.002
RIAARAIISRGG | 0.657 ± 0.021
DGAVRLGGGGLG | 0.664 ± 0.05
VMTRNERGQERK | 0.675 ± 0.038
LTFWLGSLGLWG | 0.72 ± 0.019
SFLRHSCFPSVP | 0.736 ± 0.023
TGVFFPPQLPLP | 0.69 ± 0.023
RLTLAFQKRSPP | 0.668 ± 0.1
TFISNYSCILSL | 0.644 ± 0.013
AGAGGGGWWGGV | 0.76 ± 0.054
PEERSGTSAGRL | 0.695 ± 0.038
PITFTSRYLLLE | 0.697 ± 0.042
GRRRGWAWGVWG | 0.683 ± 0.0084
KERQERGKRKII | 0.536 ± 0.035
MGGDATSLKRLV | 0.703 ± 0.0091
IDKRWVKKGGDK | 0.64 ± 0.071
ICIGRDISNQSC | 0.703 ± 0.021
FGVGWGDGFFGV | 0.716 ± 0.059
SGHFGTATTLCF | 0.749 ± 0.011
PVEAPVGLVCAK | 0.568 ± 0.011
SPLLLSSPRPSP | 0.735 ± 0.062
WVGYAWDGKFDL | 0.736 ± 0.11

Sequence | protein stability index
LPPLPPPPPLPL | 0.688 ± 0.11
VCLFPDTMSWDC | 0.803 ± 0.075
EYTRGIRKTRRA | 0.608 ± 0.051
GYGNQLILAISN | 0.576 ± 0.021
FLLPAGLWSSCC | 0.66 ± 0.043
RRRMVYPLPPTL | 0.641 ± 0.052
GYRKREMRGELQ | 0.678 ± 0.038
FLPHSPSLPQLP | 0.67 ± 0.013
GVFHAWAWCCGF | 0.78 ± 0.099
TVRKMEKKKDGG | 0.663 ± 0.012
PVLPPLLPLPCL | 0.644 ± 0.044
PPPPTLPPPLVP | 0.726 ± 0.12
GNGENKVIVRKS | 0.696 ± 0.045
TVLRMFPPRSIW | 0.67 ± 0.046
CEAGAGTGGADL | 0.674 ± 0.018
TTNLDKKILKTS | 0.6525 ± 0.0022
LTPSVRDKRPPI | 0.759 ± 0.055
DPCWLEFRESGG | 0.704 ± 0.12
NGKGARSGETRT | 0.647 ± 0.057
IVPVCFVTDQHA | 0.6605 ± 0.00071
QNKKKEKKQEIQ | 0.7 ± 0.042
